The target of data set [1] is T1, NIGT1.1 L25A/L39A L25A;L39A (Arabidopsis thaliana (Col-0?)) (UniProt Q9FPE8).
T1 sequence: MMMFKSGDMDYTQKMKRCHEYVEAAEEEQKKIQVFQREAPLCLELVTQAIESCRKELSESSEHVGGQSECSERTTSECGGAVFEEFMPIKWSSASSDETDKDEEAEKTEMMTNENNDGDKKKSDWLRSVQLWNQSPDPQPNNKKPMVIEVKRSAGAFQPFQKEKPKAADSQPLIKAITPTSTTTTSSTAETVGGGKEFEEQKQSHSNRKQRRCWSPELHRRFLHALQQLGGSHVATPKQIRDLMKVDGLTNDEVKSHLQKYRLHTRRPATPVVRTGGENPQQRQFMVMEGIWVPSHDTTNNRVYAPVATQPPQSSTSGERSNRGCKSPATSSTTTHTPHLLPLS
Kind of data set: EMSA. The note with it: EMSA: 15 ul reaction, 40 fmol biotin-labeled probe, 7.5-60 ng protein, 4% polyacrylamide gel; buffer, salt, pH and temperature not given (as in ref 24). A general note: In EMSA bound probe runs differently from free probe, usually more slowly.

Data set [2] has as its target T2, NIGT1.1 WT (Arabidopsis thaliana (Col-0?)) (UniProt Q9FPE8).
T2 sequence: T1 sequence with A25L, A39L
Kind of data set: EMSA. The note with it: EMSA: 15 ul reaction, 40 fmol biotin-labeled probe, 7.5-60 ng protein, 4% polyacrylamide gel; buffer, salt, pH and temperature not given (as in ref 24).

Data set [3] deals with the molecule itself. Kind of data set: SEC-MALS; Shodex PROTEIN LW-803 column; 20 mM Tris-HCl (pH 7.5), 500 mM NaCl, 10% glycerol, room temperature; 1 mg/ml, 70 μl loaded; 0.8 ml/min.

Substitutions are numbered along the chain they refer to.

The stoichiometry N is the number of molecules, sites or subunits per partner or assembly.

For “ACACAGGAAACAGCTATGACCATGAGCTCTTTTATTTTCTGGGAAACTTAAGTGAGAATGATGAATGAAGAAGAAAGAGAGGGGGAAGAGGTTTAGAGATATAAAAGGGATTAAAAAGAATATTCTTAAGGTTTCTAATTAGAATATCCTTTTTTCTCTGTCTTTCTTTCGGGAGAATATCTTCCTTTTATTCCTTTCTTATTTATTACTTTTTCGTGGTTATCTGTGGGTGAGATTATAACACATGCCTATGTCAGTTCATAAATATCAATCACAACTC (double strand) [P2 (SPX1 promoter)]”, the binding result in data set [1] is reported as “binds more weakly”; in data set [2], “binds”.

On to “AATATTTAAATCGATAGTTAACCGTTGAGAATCTCCAAAGAATGCTTTTTTCATTGTCAACACTGGCTAGGAACCCTATATAAGCCATCGTGTGATTAATATTCAGACATCGCATGGTCATAGCTGTTTCCTGTGT (double strand) [P3-2]”, for which the binding result is “binds more weakly” in data set [1] and “no binding” in data set [2]. Taken in the same sequence, the figures for “ACACAGGAAACAGCTATGACCATGCAACGGTTAACTATCGATTTAAATATTAATTTTCGAGGAATCCATTTTCGCCGCAAGCATCTTCCTAGTCTCTCGCTTATCACCAAAGGTTGCCGATATCCTTCCAAATGACCGCTCTACCCTTCCCTCATCTTGC (double strand) [P3-1]” were “binds more weakly” and “no binding”. Consider “ACACAGGAAACAGCTATGACCATGCGATGTCTGAATATTAATCACACGATGGCTTATATAGGGTTCCTAGCCAGTGTTGACAATGAAAAAAGCATTCTTTGGAGATTCTCAACGGTTAACTATCGATTTAAATATTAATTTTCGAGGAATCCATTTTCGCCGCAAGCATCTTCCTAGTCTCTCGCTTATCACCAAAGGTTGCCGATATCCTTCCAAATGACCGCTCTACCCTTCCCTCATCTTGC (double strand) [P3 (NRT2.1 promoter)]”, for which the binding entry in data set [1] is on record as “binds more weakly”; in data set [2] it was “binds”.

As for “AATGAATTAAGACGCGAATCGGGAAAATTCAATAAATTGTCCATTGGGGGGTGCTTTAAAGAAAGATTGAAAGATGCCGAGGTTTATACCCTTTTCCTATCAAGAATATTCCATGGAATCCAACTACTTTTGACCCATTTGCGTATTTGTTAAATCTTTTCAGAAAATCAAAAGTGGGTAAATTGTCAAACTAGTTGTAGTATTGAACTACTATTTATTGATCATGCCATCATCCATGGTCATAGCTGTTTCCTGTGT (double strand) [P1 (SPX1 promoter)]”, the binding result is “binds more weakly” in data set [1] and “binds” in data set [2].

B1: Trx-6×His-NIGT1.1^WT-6×His recombinant protein (natural protein, Arabidopsis thaliana, UniProt Q9FPE8 1-344, looked up)
chain: T1 sequence with A25L, A39L
notes: NIGT1.1, Arabidopsis thaliana, At1g25550; cDNA encoding NIGT1.1^WT cloned into pET32-b(+) by NcoI and HindIII; expected mass of the recombinant protein 57.4 kDa; Plasmid pET32-NIGT1.1; also called recombinant NIGT1.1^WT; Trx-6×His-NIGT1.1-6×His; not shown: Trx, N-terminal, kept; 6×His, N-terminal, kept; 6×His, C-terminal, kept
Take B1: in data set [3], the “stoichiometry N” value is 2.
